Measurements from PMC2516325.

Target: recombinant CquiOBP1, odorant-binding protein from Culex pipiens quinquefasciatus (Culex pipiens quinquefasciatus)
Experiment: SEC; gel filtration of purified recombinant CquiOBP1 on Superdex-75 26/60, 150 mM NaCl, 20 mM Tris-HCl pH 8; monomer and dimer peaks isolated; the dimer slowly dissociates into monomer (1 hour at room temperature, overnight at 4°C)

recombinant CquiOBP1, odorant-binding protein from Culex pipiens quinquefasciatus (natural protein)
stoichiometry N: 2
